Substitutions are numbered along the chain they refer to.
B1: H1.86 L1 XENP34542 (antibody, V domains shown)
VH: QLQVQESGPGLVKPSETLSLTCTVSGGSISNSYFSWGWIRQPPGKGLEWIGSFYYGEKTYYNPSLKSRATISIDTSKSQFSLKLSSVTAADTAVYYCPRGPTTIRGVIDSWGQGTLVTVSS
VL: EIVLTQSPATLSLSPGERATLSCRASQSVRSYLAWYQQKPGQAPRLLIYDASNRATGIPARFSGSGSGTDFTLTISSLEPEDFAVYYCQQRSNWPPTFGQGTKVEIK
B2: H1.77 L1 XENP34533 (antibody, V domains shown)
VH: B1 VH with A90V, T103M
VL: B1 VL
B3: H1.89 L1 XENP34545 (antibody, V domains shown)
VH: B1 VH with T103M, I104D
VL: B1 VL
B4: H1.78 L1 XENP34534 (antibody, V domains shown)
VH: B1 VH with P98A, T103M
VL: B1 VL
B5: H1.82 L1 XENP34538 (antibody, V domains shown)
VH: B1 VH with T102S, T103M
VL: B1 VL
B6: H1.81 L1 XENP34537 (antibody, V domains shown)
VH: B1 VH with T102N, T103M
VL: B1 VL
B7: H1.88 L1 XENP34544 (antibody, V domains shown)
VH: B1 VH with T103M, I104A
VL: B1 VL
B8: H1.83 L1 XENP34539 (antibody, V domains shown)
VH: B1 VH with T103A
VL: B1 VL
B9: H1.105 L1 XENP34561 (antibody, V domains shown)
VH: B1 VH with T103M, S110Y
VL: B1 VL
B10: H1 L1.5 XENP34568 (antibody, V domains shown)
VH: B1 VH with T103M
VL: B1 VL with A19V
B11: H1 L1.3 XENP34566 (antibody, V domains shown)
VH: B1 VH with T103M
VL: B1 VL with A9P
B12: H1.84 L1 XENP34540 (antibody, V domains shown)
VH: B1 VH with T103E
VL: B1 VL
B13: H1.95 L1 XENP34551 (antibody, V domains shown)
VH: B1 VH with T103M, R105K
VL: B1 VL
B14: H1.104 L1 XENP34560 (antibody, V domains shown)
VH: B1 VH with T103M, S110V
VL: B1 VL
B15: H1.99 L1 XENP34555 (antibody, V domains shown)
VH: B1 VH with T103M, V107S
VL: B1 VL
B16: H1.85 L1 XENP34541 (antibody, V domains shown)
VH: B1 VH with T103S
VL: B1 VL
B17: H1 L1.7 XENP34570 (antibody, V domains shown)
VH: B1 VH with T103M
VL: B1 VL with S28G
B18: H1.90 L1 XENP34546 (antibody, V domains shown)
VH: B1 VH with T103M, I104N
VL: B1 VL
B19: H1.98 L1 XENP34554 (antibody, V domains shown)
VH: B1 VH with T103M, V107A
VL: B1 VL
B20: H1.103 L1 XENP34559 (antibody, V domains shown)
VH: B1 VH with T103M, S110L
VL: B1 VL
B21: H1.91 L1 XENP34547 (antibody, V domains shown)
VH: B1 VH with T103M, I104V
VL: B1 VL
B22: H1.100 L1 XENP34556 (antibody, V domains shown)
VH: B1 VH with T103M, I108F
VL: B1 VL
B23: H1.106 L1 XENP34562 (antibody, V domains shown)
VH: B1 VH with T103M, L116M
VL: B1 VL
B24: H1.102 L1 XENP34558 (antibody, V domains shown)
VH: B1 VH with T103M, S110H
VL: B1 VL
B25: H1.107 L1 XENP34563 (antibody, V domains shown)
VH: B1 VH with T103M, L116T
VL: B1 VL
B26: H1 L1.1 XENP34564 (antibody, V domains shown)
VH: B1 VH with T103M
VL: B1 VL with L4M
B27: H1 L1.4 XENP34567 (antibody, V domains shown)
VH: B1 VH with T103M
VL: B1 VL with L13V
B28: H1.101 L1 XENP34557 (antibody, V domains shown)
VH: B1 VH with T103M, I108M
VL: B1 VL
B29: H1.87 L1 XENP34543 (antibody, V domains shown)
VH: B1 VH with T103Q
VL: B1 VL
B30: H1.40 L1 XENP34496 (antibody, V domains shown)
VH: B1 VH with I50V, T103M
VL: B1 VL
B31: H1.41 L1 XENP34497 (antibody, V domains shown)
VH: B1 VH with S52E, T103M
VL: B1 VL
B32: H1.72 L1 XENP34528 (antibody, V domains shown)
VH: B1 VH with A69V, T103M
VL: B1 VL
B33: H1.74 L1 XENP34530 (antibody, V domains shown)
VH: B1 VH with S78N, T103M
VL: B1 VL
B34: H1.60 L1 XENP34516 (antibody, V domains shown)
VH: B1 VH with K58S, T103M
VL: B1 VL
B35: H1.58 L1 XENP34514 (antibody, V domains shown)
VH: B1 VH with K58D, T103M
VL: B1 VL
B36: H1.43 L1 XENP34499 (antibody, V domains shown)
VH: B1 VH with S52T, T103M
VL: B1 VL
B37: H1.55 L1 XENP34511 (antibody, V domains shown)
VH: B1 VH with G56S, T103M
VL: B1 VL
B38: H1.64 L1 XENP34520 (antibody, V domains shown)
VH: B1 VH with Y60N, T103M
VL: B1 VL
B39: H1.62 L1 XENP34518 (antibody, V domains shown)
VH: B1 VH with Y60F, T103M
VL: B1 VL
B40: H1.67 L1 XENP34523 (antibody, V domains shown)
VH: B1 VH with N62S, T103M
VL: B1 VL
B41: H1.65 L1 XENP34521 (antibody, V domains shown)
VH: B1 VH with Y60S, T103M
VL: B1 VL
B42: H1.47 L1 XENP34503 (antibody, V domains shown)
VH: B1 VH with F53V, T103M
VL: B1 VL
B43: H1.51 L1 XENP34507 (antibody, V domains shown)
VH: B1 VH with Y54N, T103M
VL: B1 VL
B44: H1.56 L1 XENP34512 (antibody, V domains shown)
VH: B1 VH with E57G, T103M
VL: B1 VL
B45: H1.75 L1 XENP34531 (antibody, V domains shown)
VH: B1 VH with K83Q, T103M
VL: B1 VL
B46: H1.54 L1 XENP34510 (antibody, V domains shown)
VH: B1 VH with Y55S, T103M
VL: B1 VL
B47: H1.61 L1 XENP34517 (antibody, V domains shown)
VH: B1 VH with T59I, T103M
VL: B1 VL
B48: H1.42 L1 XENP34498 (antibody, V domains shown)
VH: B1 VH with S52N, T103M
VL: B1 VL

Molecular target: T1, human TGFßRII (antigen of the Octet experiments) (human, UniProt P37173 23-166)
Assay: BLI (Octet)

T1 sequence (P37173 23-166): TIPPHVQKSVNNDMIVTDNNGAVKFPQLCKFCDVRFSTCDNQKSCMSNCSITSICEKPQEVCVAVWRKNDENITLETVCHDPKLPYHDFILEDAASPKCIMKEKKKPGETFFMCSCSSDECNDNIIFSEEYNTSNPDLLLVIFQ

**Q.** With B1 as the binder, how does the Kd read?
**A.** The Kd was 0.0662 nM.

**Q.** Which Kd does the source give for B2 here?
**A.** Its Kd is 0.749 nM.

**Q.** How did the Kd turn out when B3 was run?
**A.** The Kd was 0.141 nM.

**Q.** How did the Kd turn out when B4 was run?
**A.** Its Kd is 0.699 nM.

**Q.** How did the Kd turn out when B5 was run?
**A.** The Kd was 2.41 nM.

**Q.** For B6, which Kd is on record?
**A.** Its Kd is 300 nM.

**Q.** Which Kd does the source give for B7 here?
**A.** Its Kd is 0.402 nM.

**Q.** With B8 as the binder, how does the Kd read?
**A.** The Kd was 3.47 nM.

**Q.** With B9 as the binder, how does the Kd read?
**A.** The Kd was 0.455 nM.

**Q.** For B10, which Kd is on record?
**A.** The Kd was 1.3 nM.

**Q.** Which Kd does the source give for B11 here?
**A.** Its Kd is 0.547 nM.

**Q.** B12 was tested. Which Kd did it give?
**A.** Its Kd is 4.16 nM.

**Q.** With B13 as the binder, how does the Kd read?
**A.** Its Kd is 2.34 nM.

**Q.** Which Kd does the source give for B14 here?
**A.** Its Kd is 0.601 nM.

**Q.** For B15, which Kd is on record?
**A.** The Kd was 0.431 nM.

**Q.** With B16 as the binder, how does the Kd read?
**A.** Its Kd is 4 nM.

**Q.** Which Kd does the source give for B17 here?
**A.** The Kd was 0.315 nM.

**Q.** Which Kd does the source give for B18 here?
**A.** The Kd was 0.0747 nM.

**Q.** With B19 as the binder, how does the Kd read?
**A.** The Kd was 0.761 nM.

**Q.** How did the Kd turn out when B20 was run?
**A.** Its Kd is 0.16 nM.

**Q.** How did the Kd turn out when B21 was run?
**A.** The Kd was 0.512 nM.

**Q.** Which Kd does the source give for B22 here?
**A.** The Kd was 0.898 nM.

**Q.** With B23 as the binder, how does the Kd read?
**A.** Its Kd is 0.624 nM.

**Q.** For B24, which Kd is on record?
**A.** The Kd was 0.139 nM.

**Q.** With B25 as the binder, how does the Kd read?
**A.** Its Kd is 0.109 nM.

**Q.** For B26, which Kd is on record?
**A.** Its Kd is 0.569 nM.

**Q.** With B27 as the binder, how does the Kd read?
**A.** Its Kd is 0.601 nM.

**Q.** With B28 as the binder, how does the Kd read?
**A.** The Kd was 0.492 nM.

**Q.** Which Kd does the source give for B29 here?
**A.** The Kd was 1.58 nM.

Molecular target: T1, human TGFßRII (antigen of the Octet …)
Assay: BLI (Octet)
Remark: another data set of the same source

**Q.** With B30 as the binder, how does the Kd read?
**A.** Its Kd is 0.338 nM.

**Q.** With B31 as the binder, how does the Kd read?
**A.** Its Kd is 18.9 nM.

**Q.** B32 was tested. Which Kd did it give?
**A.** The Kd was 0.42 nM.

**Q.** For B33, which Kd is on record?
**A.** Its Kd is 0.771 nM.

**Q.** For B34, which Kd is on record?
**A.** Its Kd is 3.86 nM.

**Q.** Which Kd does the source give for B35 here?
**A.** Its Kd is 2.49 nM.

**Q.** With B36 as the binder, how does the Kd read?
**A.** The Kd was 0.627 nM.

**Q.** B37 was tested. Which Kd did it give?
**A.** Its Kd is 0.348 nM.

**Q.** How did the Kd turn out when B38 was run?
**A.** The Kd was 5.37 nM.

**Q.** B39 was tested. Which Kd did it give?
**A.** The Kd was 1.35 nM.

**Q.** Which Kd does the source give for B40 here?
**A.** The Kd was 1.95 nM.

**Q.** Which Kd does the source give for B41 here?
**A.** The Kd was 15.1 nM.

**Q.** B42 was tested. Which Kd did it give?
**A.** Its Kd is 0.677 nM.

**Q.** B43 was tested. Which Kd did it give?
**A.** The Kd was 35.6 nM.

**Q.** With B44 as the binder, how does the Kd read?
**A.** Its Kd is 0.203 nM.

**Q.** For B45, which Kd is on record?
**A.** Its Kd is 1.18 nM.

**Q.** For B46, which Kd is on record?
**A.** Its Kd is 0.666 nM.

**Q.** B47 was tested. Which Kd did it give?
**A.** The Kd was 0.791 nM.

**Q.** For B48, which Kd is on record?
**A.** The Kd was 2.59 nM.

Source: US20220144956A1 (published 2022)
